The results in this text go back to patent US7416847, “In vitro peptide or protein expression library” (Isogenica Limited).

Series [1] has as its target T1, P2 A protein (replication initiation protein A), His6-tagged (Bacteriophage P2, UniProt Q06419 Q06419:1-761).
T1 sequence: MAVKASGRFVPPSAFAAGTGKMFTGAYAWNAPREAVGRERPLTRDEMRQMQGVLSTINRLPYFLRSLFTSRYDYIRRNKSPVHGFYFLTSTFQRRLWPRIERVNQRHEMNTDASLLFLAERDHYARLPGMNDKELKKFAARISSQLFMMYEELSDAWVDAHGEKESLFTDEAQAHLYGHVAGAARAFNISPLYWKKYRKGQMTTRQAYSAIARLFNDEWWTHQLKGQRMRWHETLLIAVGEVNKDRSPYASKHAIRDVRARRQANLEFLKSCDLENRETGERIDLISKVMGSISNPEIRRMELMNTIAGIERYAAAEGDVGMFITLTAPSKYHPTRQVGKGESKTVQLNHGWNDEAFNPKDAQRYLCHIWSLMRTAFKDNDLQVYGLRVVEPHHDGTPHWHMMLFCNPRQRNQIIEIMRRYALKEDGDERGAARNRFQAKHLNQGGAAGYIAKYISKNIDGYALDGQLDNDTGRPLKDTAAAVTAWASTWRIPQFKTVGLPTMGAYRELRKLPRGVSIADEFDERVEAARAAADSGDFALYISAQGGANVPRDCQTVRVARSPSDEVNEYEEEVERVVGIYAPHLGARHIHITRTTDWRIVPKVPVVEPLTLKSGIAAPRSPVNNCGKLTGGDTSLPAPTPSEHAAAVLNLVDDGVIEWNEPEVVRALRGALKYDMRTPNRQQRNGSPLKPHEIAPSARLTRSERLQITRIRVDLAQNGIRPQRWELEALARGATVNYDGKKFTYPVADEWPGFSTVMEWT
As to the kind of experiment: pulldown; Ni-NTA selection of His::A plasmid over A plasmid pEE709; cis covalent binding; whole plasmid assayed, listed sequence is only the attachment region; 50 mM Na-phosphate pH 8.0, 300 mM NaCl, 20 mM imidazole. The following applies: tags: N-terminal His6 (expressed from pEE711 or pEN24 in E. coli T7 S30 extract, Promega). On the procedure: One ug of DNA of the pEE709 and the pEE711 plasmids respectively was added to the coupled transcription/translation extract kit (20 ul S30 premix, 5 ul aminoacid mix and 15 ul *E. Coli* T7 S30 extract system for circular DNA, Promega, USA). The transcription/translation was allowed to proceed for 60 minutes at 37° C. The extract mixture was diluted 12-fold in washing buffer (Qiagen; […] Na-phosphate pH 8.0, 300 mM NaCl, 20 mM imidazole, 1 mM PMSF) and subjected to Ni selection by addition to a Ni-NTA spin column (Qiagen, Germany) equilibrated with Buffer 1 (50 mM Na-phosphate pH 8.0, 300 mM NaCl, 20 mM imidazole) under non-denaturing conditions. […] High efficiency competent cells JM109 (Promega, USA) were transformed with a portion of the eluant and scored for ampicillin resistant colonies. […]
To determine the distribution (ratio) of the plasmid types in the eluant, the presence of plasmids was measured by transformation of strain JM 109 (Promega) for amp-resistance. Colonies were picked and analysed for their plasmid type (differentiated by size) after plasmid extraction followed by agarose gel electrophoresis. The ratio of pEE711 (His::A) to pEE709 (A) in the absence of Ni-column selection was also determined.

Series [2] addresses T1, P2 A protein (replication initiation …). Kind of series: pulldown; Ni-NTA selection of His::A plasmid over A plasmid pEN21; no enrichment when S30 extract omitted; whole plasmid assayed, listed sequence is only the attachment region; 1 mM imidazole wash. The conditions noted are these: tags: N-terminal His6 (expressed from pEE711 or pEN24 in E. coli T7 S30 extract, Promega). The text has this:
In the second experiment two new plasmid constructs pEN21 (an A gene construct with an amp resistance gene, see FIG. 1) and pEN24 (a His::A gene construct with a tag of six histidine residues and a kanamycin resistance gene, see FIG. 1) were subjected to the same type of experiment as in experiment 1 above, with the modifications indicated in the materials and methods section below. By employing this differential antibiotic resistance it is possible to score for the individual plasmid types directly as bacterial colonies.
Materials and Methods pEN21 and 24 are derivatives of pET21a and pET24a (Novagen Inc. USA). The pET21a and pET24a vectors differ only by their selectable marker (ampicillin and kanamycin resistance respectively). The pEN21 and pEN24 were constructed by restriction cutting of pEE709 and pEE711 with XbaI and BlpI which cuts out the A gene and flanking regions. pET21a and pET24a were cut with the same restriction enzymes. The A-fragments and new vector fragments were isolated from an agarose gel after electrophoresis by Spin-Bind columns (FMC). […] The plasmids were incubated for 30 minutes in the S30 extracts and the plasmid types were scored by differential antibiotic resistance using ampicillin (pEN21) and kanamycin (pEN24) plates after transformation of E. coli strain BK 2118 by electroporation. […]

B1: pEE711 plasmid encoding His::A (contains P2 A attachment site) (dsDNA)
DNA 1: AGCGGCATCGCCGCGCCTCGGAGTCCTGTC
DNA 2: GACAGGACTCCGAGGCGCGGCGATGCCGCT
B1 showed a binding signal in series [1] of 13.3 fold enrichment.

B2: pEN24 plasmid encoding His::A (contains P2 A attachment site) (dsDNA)
DNA 1: AGCGGCATCGCCGCGCCTCGGAGTCCTGTC
DNA 2: GACAGGACTCCGAGGCGCGGCGATGCCGCT
In series [2], B2 returned a binding signal of 6.8 fold enrichment.
